Results: US20150274826A1 (ARCH ONCOLOGY, published 2015)
Where a chain is given by its changes, count along the chain named. One block for each binder: values may come before it.

How the values were obtained:
Experiment in all cases: flow cytometry on RBCs, CHO supernatant 10 ng/ml
dog CD47 = target: T1, dog CD47 (dog, UniProt A0A8I3PM61 19-310)
T1 construct: also called CD47 on dog RBCs
T1 sequence: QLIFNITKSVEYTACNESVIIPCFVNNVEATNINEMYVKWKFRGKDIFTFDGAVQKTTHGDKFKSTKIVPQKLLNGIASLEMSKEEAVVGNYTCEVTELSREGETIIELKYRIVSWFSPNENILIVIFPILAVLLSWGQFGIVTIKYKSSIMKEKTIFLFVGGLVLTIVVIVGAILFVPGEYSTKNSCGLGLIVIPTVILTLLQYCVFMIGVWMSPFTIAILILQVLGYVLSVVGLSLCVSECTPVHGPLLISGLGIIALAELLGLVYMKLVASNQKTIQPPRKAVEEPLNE
Description: (§1) RBCs are incubated for 60 minutes on ice with tissue culture supernatants containing the secreted humanized antibodies at a concentration of 10 ng/ml in a solution of phosphate buffered saline, pH 7.2, 2.5 mM EDTA (PBS+E), or with various concentrations of purified antibodies. Cells are then washed with cold PBS+E, and incubated for an additional hour on ice with FITC labeled donkey anti-human antibody (Jackson Immuno Research Labs, West Grove, Pa.; Catalogue #709-096-149) in PBS+E. Cells are then washed with PBS+E, and antibody binding is analyzed using a BD FACSAria Cell Sorter (Becton Dickinson) or a C6 Accuri Flow Cytometer (Becton Dickinson). Antibody binding is quantitated by comparison of mean fluorescence values relative to that of chimeric antibody >VxP037-01LC (SEQ ID NO:7))/>VxPO37-01HC (SEQ ID NO:57). The mean fluorescence value for each antibody is divided by the mean fluorescence value for the chimeric antibody.

pig CD47 = target: T2, pig CD47 (pig, UniProt Q9GKE8 19-303)
T2 construct: whole, on cells; also called CD47 on porcine RBCs
T2 sequence (looked up): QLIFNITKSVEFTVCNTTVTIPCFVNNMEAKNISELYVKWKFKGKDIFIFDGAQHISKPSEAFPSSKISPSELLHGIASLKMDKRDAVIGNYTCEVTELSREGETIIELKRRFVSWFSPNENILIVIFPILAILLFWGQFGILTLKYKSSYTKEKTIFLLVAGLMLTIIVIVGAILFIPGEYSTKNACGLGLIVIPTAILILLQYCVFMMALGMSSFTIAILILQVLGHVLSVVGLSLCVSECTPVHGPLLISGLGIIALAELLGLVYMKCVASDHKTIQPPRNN
Description: as §1

mouse CD47 = target: T3, mouse CD47 (mouse, UniProt Q61735 19-303)
T3 construct: whole, on cells; also called CD47 on mouse RBCs; CD47 on 4T1 cells
T3 sequence (looked up): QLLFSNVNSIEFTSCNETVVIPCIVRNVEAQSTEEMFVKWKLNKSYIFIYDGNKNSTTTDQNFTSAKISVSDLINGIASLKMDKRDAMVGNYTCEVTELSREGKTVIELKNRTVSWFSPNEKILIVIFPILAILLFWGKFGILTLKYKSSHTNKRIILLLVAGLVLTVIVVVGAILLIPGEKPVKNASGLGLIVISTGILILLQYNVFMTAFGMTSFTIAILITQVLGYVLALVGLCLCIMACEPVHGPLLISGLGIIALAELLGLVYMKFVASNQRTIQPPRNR
Description: as §1

rat CD47 = target: T4, rat CD47 (rat, UniProt P97829 19-303)
T4 construct: whole, on cells; also called CD47 on rat RBCs
T4 sequence (looked up): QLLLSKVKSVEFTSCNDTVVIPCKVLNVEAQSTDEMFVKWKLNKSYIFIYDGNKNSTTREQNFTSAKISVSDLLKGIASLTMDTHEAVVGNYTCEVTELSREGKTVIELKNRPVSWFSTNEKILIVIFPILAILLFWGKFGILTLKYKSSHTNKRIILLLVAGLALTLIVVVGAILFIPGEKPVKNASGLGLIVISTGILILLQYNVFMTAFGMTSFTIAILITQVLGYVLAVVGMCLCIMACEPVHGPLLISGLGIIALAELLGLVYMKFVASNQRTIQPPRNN
Description: as §1

human CD47 = target: T5, human CD47 (human, UniProt Q08722 19-323)
T5 construct: whole, on cells; also called CD47 on human RBCs; CD47 on OV10 cells
Description: as §1

T5 sequence (Q08722 19-323): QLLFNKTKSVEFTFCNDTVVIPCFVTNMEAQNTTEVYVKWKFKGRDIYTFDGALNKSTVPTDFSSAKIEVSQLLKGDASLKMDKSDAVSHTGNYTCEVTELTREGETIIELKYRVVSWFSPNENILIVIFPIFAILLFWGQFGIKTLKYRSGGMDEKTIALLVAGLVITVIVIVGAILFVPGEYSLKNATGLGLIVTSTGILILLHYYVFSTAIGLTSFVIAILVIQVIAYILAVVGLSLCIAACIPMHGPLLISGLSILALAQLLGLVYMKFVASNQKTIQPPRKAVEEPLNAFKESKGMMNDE

B3: Clone 9 (pVxK7b-037-hum09-LC / pVxK7b-037-hum09-HC) (antibody, human IgG1, kappa)
heavy: not shown
light: DVVMTQSPLSLPVTLGQPASISCRSSQSLVHSNGNTYLHWYQQKPGKAPKLLIYKVSYRFSGVPDRFSGSGSGTDFTLKISRVEAEDVGVYYCSQNTHVPRTFGQGTKVEIKRTVAAPSVFIFPPSDEQLKSGTASVVCLLNNFYPREAKVQWKVDNALQSGNSQESVTEQDSKDSTYSLSSTLTLSKADYEKHKVYACEVTHQGLSSPVTKSFNRGEC
notes: also called Cl 9
- mean fluorescence relative to chimeric antibody (dog CD47): 1 ratio
- mean fluorescence relative to chimeric antibody (pig CD47): 1.6 ratio
- mean fluorescence relative to chimeric antibody (mouse CD47): 1.4 ratio
- mean fluorescence relative to chimeric antibody (rat CD47): 3.7 ratio
- mean fluorescence relative to chimeric antibody (human CD47): 1.2 ratio

B4: Clone 8 (pVxK7b-037-hum08-LC / pVxK7b-037-hum08-HC) (antibody, human IgG1, kappa)
heavy: not shown
light: B3 light with V2I, S7T, L15P, Q17E
- mean fluorescence relative to chimeric antibody (dog CD47): 0.8 ratio
- mean fluorescence relative to chimeric antibody (pig CD47): 0.8 ratio
- mean fluorescence relative to chimeric antibody (mouse CD47): 0.7 ratio
- mean fluorescence relative to chimeric antibody (rat CD47): 1.2 ratio
- mean fluorescence relative to chimeric antibody (human CD47): 0.7 ratio

B5: Clone 5 (pVxK7b-037-hum05-LC / pVxK7b-037-hum05-HC) (antibody, human IgG1, kappa)
heavy: not shown
light: B3 light with V2I, S7T, L15P, Q17E, Q42L, K47Q, A48S, K50Q
- mean fluorescence relative to chimeric antibody (dog CD47): 1.1 ratio
- mean fluorescence relative to chimeric antibody (pig CD47): 1.2 ratio
- mean fluorescence relative to chimeric antibody (mouse CD47): 1 ratio
- mean fluorescence relative to chimeric antibody (rat CD47): 2.2 ratio
- mean fluorescence relative to chimeric antibody (human CD47): 1 ratio

B8: Clone 4 (pVxK7b-037-hum04-LC / pVxK7b-037-hum04-HC) (antibody, human IgG1, kappa, V domains shown)
VH: QVQLQESGPGLVKPSQTLSLTCTVSGYTFTNYYVFWVRQAPGKGLEWVSDINPVNGDTNFNEKFKNRVTISVDTSKNQFSLKLSSVTAADTAVYYCARGGYTMDYWGQGTLVTVSS
VL: DIQMTQSPSSLSASVGDRVTITCRSSQSLVHSNGNTYLHWYLQKPGQSPQLLIYKVSYRFSGIPARFSGSGSGTEFTLTISSLQSEDFAVYYCSQNTHVPRTFGQGTKVEIKR
- mean fluorescence relative to chimeric antibody (dog CD47): 0.6 ratio
- mean fluorescence relative to chimeric antibody (pig CD47): 0.6 ratio
- mean fluorescence relative to chimeric antibody (mouse CD47): 0.6 ratio
- mean fluorescence relative to chimeric antibody (rat CD47): 1 ratio
- mean fluorescence relative to chimeric antibody (human CD47): 0.6 ratio

B10: Clone 7 (pVxK7b-037-hum07-LC / pVxK7b-037-hum07-HC) (antibody, human IgG1, kappa, V domains shown)
VH: QVQLQESGPGLVKPGATVKISCKVSGYTFTNYYVFWVRQARGQRLEWIGDINPVNGDTNFNEKFKNRVTITADKSTSTAYMELSSLRSEDTAVYYCARGGYTMDYWGQGTLVTVSS
VL: DIVMTQTPLSLPVTPGEPASISCRSSQSLVHSNGNTYLHWYLQKPGQSPQLLIYKVSYRFSGVPDRFSGSGSGTDFTLKISRVEAEDVGVYYCSQNTHVPRTFGQGTKVEIKR
- mean fluorescence relative to chimeric antibody (dog CD47): 0.8 ratio
- mean fluorescence relative to chimeric antibody (pig CD47): 0.9 ratio
- mean fluorescence relative to chimeric antibody (mouse CD47): 0.4 ratio
- mean fluorescence relative to chimeric antibody (rat CD47): 0.8 ratio
- mean fluorescence relative to chimeric antibody (human CD47): 0.5 ratio

The remaining lines, values ahead:

- mean fluorescence relative to chimeric antibody (dog CD47): 1.1 ratio
- mean fluorescence relative to chimeric antibody (pig CD47): 1.1 ratio
- mean fluorescence relative to chimeric antibody (mouse CD47): 1 ratio
- mean fluorescence relative to chimeric antibody (rat CD47): 2.1 ratio
- mean fluorescence relative to chimeric antibody (human CD47): 0.9 ratio
B1: Clone 16 (pVxK7b-037-hum16-LC / pVxK7b-037-hum16-HC) (antibody, human IgG1, kappa, V domains shown)
VH: QVQLQESGPGLVKPSQTLSLTCTVSGYTFTNYYVFWVRQARGQRLEWIGDINPVNGDTNFNEKFKNRVTISADKSISTAYLQWSSLKASDTAMYYCARGGYTMDYWGQGTLVTVSS
VL: AIQLTQSPSSLSASVGDRVTITCRSSQSLVHSNGNTYLHWYQQKPGQAPRLLIYKVSYRFSGVPDRFSGSGSGTDFTLKISRVEAEDVGVYYCSQNTHVPRTFGQGTKVEIKR

- mean fluorescence relative to chimeric antibody (dog CD47): 1.3 ratio
- mean fluorescence relative to chimeric antibody (pig CD47): 1.3 ratio
- mean fluorescence relative to chimeric antibody (mouse CD47): 0.9 ratio
- mean fluorescence relative to chimeric antibody (rat CD47): 2.1 ratio
- mean fluorescence relative to chimeric antibody (human CD47): 0.8 ratio
B2: Clone 17 (pVxK7b-037-hum17-LC / pVxK7b-037-hum17-HC) (antibody, human IgG1, kappa)
heavy: not shown
light: AIQLTQSPSSLSASVGDRVTITCRSSQSLVHSNGNTYLHWYQQKPGQAPRLLIYKVSYRFSGVPDRFSGSGSGTDFTLKISRVEAEDVGVYYCSQNTHVPRTFGQGTKVEIKRTVAAPSVFIFPPSDEQLKSGTASVVCLLNNFYPREAKVQWKVDNALQSGNSQESVTEQDSKDSTYSLSSTLTLSKADYEKHKVYACEVTHQGLSSPVTKSFNRGEC

- mean fluorescence relative to chimeric antibody (dog CD47): 1.1 ratio
- mean fluorescence relative to chimeric antibody (pig CD47): 1.5 ratio
- mean fluorescence relative to chimeric antibody (mouse CD47): 1.2 ratio
- mean fluorescence relative to chimeric antibody (rat CD47): 2.9 ratio
- mean fluorescence relative to chimeric antibody (human CD47): 1.1 ratio
B6: Clone 10 (pVxK7b-037-hum10-LC / pVxK7b-037-hum10-HC) (antibody, human IgG1, kappa, V domains shown)
VH: QVQLQESGPGLVKPSQTLSLTCTVSGYTFTNYYVFWVRQARGQRLEWIGDINPVNGDTNFNEKFKNRLTISKDTSKNQVVLTMTNMDPVDTATYYCARGGYTMDYWGQGTLVTVSS
VL: B10 VL

- mean fluorescence relative to chimeric antibody (dog CD47): 1 ratio
- mean fluorescence relative to chimeric antibody (pig CD47): 1.1 ratio
- mean fluorescence relative to chimeric antibody (mouse CD47): 0.7 ratio
- mean fluorescence relative to chimeric antibody (rat CD47): 1.2 ratio
- mean fluorescence relative to chimeric antibody (human CD47): 0.8 ratio
B7: Clone 24 (pVxK7b-037-hum24-LC / pVxK7b-037-hum24-HC) (antibody, human IgG1, kappa, V domains shown)
VH: B10 VH
VL: B8 VL with D1A, M4L, L42Q, S48A, Q50R, I63V, A65S, S85P, E86D, V90T
notes: also called Cl 24

- mean fluorescence relative to chimeric antibody (dog CD47): 0.8 ratio
- mean fluorescence relative to chimeric antibody (pig CD47): 1.2 ratio
- mean fluorescence relative to chimeric antibody (mouse CD47): 0.7 ratio
- mean fluorescence relative to chimeric antibody (rat CD47): 1.2 ratio
- mean fluorescence relative to chimeric antibody (human CD47): 0.8 ratio
B9: Clone 11 (pVxK7b-037-hum11-LC / pVxK7b-037-hum11-HC) (antibody, human IgG1, kappa, V domains shown)
VH: B10 VH
VL: EIVLTQSPATLSVSPGERATLSCRSSQSLVHSNGNTYLHWYQQKPGQAPRLLIYKVSYRFSGVPSRFSGSGSGTDFTFTISSLEAEDAATYYCSQNTHVPRTFGQGTKVEIKR
notes: also called Cl 11

- mean fluorescence relative to chimeric antibody (dog CD47): 0.9 ratio
- mean fluorescence relative to chimeric antibody (pig CD47): 1.4 ratio
- mean fluorescence relative to chimeric antibody (mouse CD47): 0.6 ratio
- mean fluorescence relative to chimeric antibody (rat CD47): 1.3 ratio
- mean fluorescence relative to chimeric antibody (human CD47): 0.8 ratio
B11: Clone 12 (pVxK7b-037-hum12-LC / pVxK7b-037-hum12-HC) (antibody, human IgG1, kappa, V domains shown)
VH: B10 VH
VL: B10 VL with L42Q, Q47K, S48A, Q50K
